In publication PMC7549315:

How the values were obtained:
[1] = target: SAF-A^RGG1-7Δ–GFP (UniProt Q00839); experiment: co-IP
[2] = target: SAF-A^CtermΔ–GFP; experiment: co-IP
Sequence of SAF-A^CtermΔ–GFP (Q00839 2-825, stated change not applied): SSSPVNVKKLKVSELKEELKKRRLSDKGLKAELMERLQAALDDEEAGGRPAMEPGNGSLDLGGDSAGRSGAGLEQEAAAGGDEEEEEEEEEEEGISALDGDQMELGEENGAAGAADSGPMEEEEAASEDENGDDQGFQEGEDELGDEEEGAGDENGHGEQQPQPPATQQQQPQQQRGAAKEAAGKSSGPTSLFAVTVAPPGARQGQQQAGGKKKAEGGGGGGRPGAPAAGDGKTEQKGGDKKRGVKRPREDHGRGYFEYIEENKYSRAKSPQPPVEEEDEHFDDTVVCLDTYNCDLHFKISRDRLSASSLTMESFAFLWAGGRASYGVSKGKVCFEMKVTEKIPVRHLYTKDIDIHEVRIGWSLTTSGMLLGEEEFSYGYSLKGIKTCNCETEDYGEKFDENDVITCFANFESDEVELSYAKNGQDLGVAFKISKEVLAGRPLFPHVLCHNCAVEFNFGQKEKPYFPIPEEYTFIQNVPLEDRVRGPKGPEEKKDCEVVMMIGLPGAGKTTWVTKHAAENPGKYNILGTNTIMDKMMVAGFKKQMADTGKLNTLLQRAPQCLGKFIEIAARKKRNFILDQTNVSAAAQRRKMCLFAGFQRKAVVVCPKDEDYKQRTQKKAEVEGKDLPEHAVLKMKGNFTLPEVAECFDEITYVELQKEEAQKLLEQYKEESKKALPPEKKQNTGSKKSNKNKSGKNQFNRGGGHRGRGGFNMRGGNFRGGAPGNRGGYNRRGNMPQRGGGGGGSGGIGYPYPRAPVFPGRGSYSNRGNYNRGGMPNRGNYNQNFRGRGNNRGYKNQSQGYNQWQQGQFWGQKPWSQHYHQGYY

Sequence of SAF-A^RGG1-7Δ–GFP (Q00839 whole entry, stated change not applied): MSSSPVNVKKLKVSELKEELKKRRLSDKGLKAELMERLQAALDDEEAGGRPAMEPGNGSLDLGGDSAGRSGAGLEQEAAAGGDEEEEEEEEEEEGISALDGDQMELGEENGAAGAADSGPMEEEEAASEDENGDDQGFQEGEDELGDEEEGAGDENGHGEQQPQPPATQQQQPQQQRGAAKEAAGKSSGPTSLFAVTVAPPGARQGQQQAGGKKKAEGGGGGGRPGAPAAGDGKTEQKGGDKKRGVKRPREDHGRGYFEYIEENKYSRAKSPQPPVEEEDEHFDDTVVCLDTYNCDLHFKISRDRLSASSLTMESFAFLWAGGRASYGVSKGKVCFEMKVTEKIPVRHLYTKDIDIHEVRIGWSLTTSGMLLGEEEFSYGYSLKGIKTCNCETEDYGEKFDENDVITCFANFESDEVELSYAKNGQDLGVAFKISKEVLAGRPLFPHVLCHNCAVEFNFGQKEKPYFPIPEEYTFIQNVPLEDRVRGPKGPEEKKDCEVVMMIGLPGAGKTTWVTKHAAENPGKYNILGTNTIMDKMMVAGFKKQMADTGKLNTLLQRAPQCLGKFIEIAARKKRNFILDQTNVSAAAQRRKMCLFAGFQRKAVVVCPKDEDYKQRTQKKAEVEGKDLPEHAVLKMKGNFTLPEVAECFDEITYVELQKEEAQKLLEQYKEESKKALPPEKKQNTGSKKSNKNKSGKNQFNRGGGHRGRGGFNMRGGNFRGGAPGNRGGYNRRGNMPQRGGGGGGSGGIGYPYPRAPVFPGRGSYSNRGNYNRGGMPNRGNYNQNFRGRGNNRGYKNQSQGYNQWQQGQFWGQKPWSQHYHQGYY

fold reduction in histone H3 interaction relative to SAF-A^wt–GFP [1]: > 7 fold
fold reduction in histone H3 interaction relative to SAF-A^wt–GFP [2]: > 7 fold
Substance: histone H3 (from UniProt P68431 1-136) (natural protein)
